Assay results: patent US20230279079A1 (CHANG GUNG MEMORIAL HOSPITAL LINKOU, published 2023)

Key:
SARS spike S1 subunit = molecular target: T1, SARS spike S1 subunit (severe acute respiratory syndrome …, UniProt P59594 14-667); test: ELISA
T1 construct: domain: S1 subunit

[1] = molecular target: T2, MERS spike extracellular domain (Middle East respiratory syndrome …, UniProt K9N5Q8 18-1296); test: ELISA
T2 construct: extracellular domain

[2] = molecular target: T3, SARS-CoV-2 spike S2 subunit (SARS-CoV-2, UniProt P0DTC2 686-1213); test: ELISA
T3 construct: domain: S2 subunit

[3] = molecular target: T4, Human coronavirus OC43 spike extracellular domain (human coronavirus OC43, UniProt P36334 14-1297); test: ELISA
T4 construct: extracellular domain

[4] = molecular target: T5, SARS-CoV-2 nucleocapsid protein (SARS-CoV-2, UniProt P0DTC9 1-419); test: ELISA on recombinant protein
T5 construct: also called N protein

Binder | binding result (SARS spike S1 subunit) | binding result [1] | binding result [2] | binding result [3] | binding result [4]
FN 12A (antibody, V domains shown) VH: QVQLVQSGAEVKKPGSSVKVSCKASGGTFSSYAISWVRQAPGQGLEWMGRIIPILGIANYAQKFQGRVTITADKSTSTAYMELSSLRSEDTAVYYCARSGCSSTSCPSNLYYYYYGMDVWGQGTTVTVSS VL: QSVLTQPPSVSAAPGQKVTISCSGSSSNIGNNYVSWYQQLPGTAPKLLIYDNNKRPSGIPDRFSGSKSGTSATLGITGLQTGDEADYYCGTWDSSLSALVFGGGTKLTVL | binds | binds | no binding | binds | 
EZ 7A (antibody, V domains shown) VH: EVQLVESGAEVKKPGESLKISCKGSGYSFTSYWIGWVRQMPGKGLEWMGIIYPGDSDTRYSPSFQGQVTISADKSISTAYLQWSSLKASDTAMYYCARGWVYRGFPYYGMDVWGQGTMVTVSS VL: QSALTQPRSVSGSPGQSVTISCTGTSSDVGGYNYVSWYQQHPGKAPKLMIYDVSKRPSGVPDRFSGSKSGNTASLTISGLQAEDEADYYCCSYAGSYTLVFGGGTKLTVL | binds | binds | no binding |  | 
EZ 9B (antibody, V domains shown) VH: not shown VL: SYELTQPPSVSVAPGQTARITCGGNNIGSKSVHWYQQKPGQAPVLVVYDDSDRPSGIPERFSGSNSGNTATLTISRVEAGDEADYYCQVWDSSSDHPSWVFGGGTKLTVL |  |  |  |  | binds
EZ 11C (antibody, V domains shown) VH: EVQLVESGAEVKKPGASVKVSCKVSGYTLTELSMHWVRQAPGKGLEWMGGFDPEDGETIYAQKFQGRVTMTEDTSTDTAYMELSSLRSEDTAVYYCATTTVTTPTANWFDPWGQGTLVTVSS VL: QSALTQPPSVSAAPGQKVTISCSGSSSNIGNNYVSWYQQLPGTAPKLLIYENNKRPSGIPDRFSGSKSGTSATLGITGLQTGDEADYYCGTWDSSLRQVVFGGGTKLTVL |  |  |  |  | binds
EZ 11A (antibody, V domains shown) VH: EVQLVESGGGLVQPGGSLRLSCAASGFTFSSYWMSWVRQAPGKGLEWVANIKQDGSEKYYVDSVKGRFTISRDNAKNSLYLQMNSLRAEDTAVYYCARDDYSGSYYWEFDYWGQGTLVTVSS VL: QPVLTQSPSASASLGASVKLTCTLSSGHSSYAIAWHQQQPEKGPRYLMKLNSDGSHSKGDGIPDRFSGSSSGAERYLTISSLQSEDEADYYCQTWGTGIWVFGGGTKLTVL |  |  |  |  | binds
EW 10C (antibody, V domains shown) VH: EVQLVESGGGLVQPGGSLRLSCAASGFTFNKYKMTWVRQAPGKGLEWVANIKEDGSEKNYVDSVKGRFTISRDNARNSVYMHLNNLRVEDTAVYYCARGRTLGDWGQGTTVTVSS VL: AIRMTQSPLSLPVTLGQPASISCRSSQSLVHSDGNTYLNWFQQRPGQSPRRLIYKVSNRDSGAPDRFSGSGSGTDFTLKISRVEAEDVGVYYCMQGTHWPPITFGPGTKVDIK |  |  |  |  | binds
EY 12B (antibody, V domains shown) VH: EVQLVESGGDLVQPGRSLRLSCAASGFTFDYFAMHWVRQVPGKGLEWVSGIRWNSETIGYADSVKGRFTISRDNAKKSLYLEMNSLRSEDTAFYYCAKGRSGYGHTAFDVWGQGTMVTVSS VL: QSALTQPPSVSGAPGQRVTISCTGSSSNIGANYDVHWYQRLPGTAPKLLIYDNNNRPSGVPDRFSGSKSGTSASLAIAGLQAEDEADYYCQSYDSSLSASVFGGGTKLTVL |  |  |  |  | binds
EZ 8C (antibody, V domains shown) VH: EVQLVESGGGLVKPGGSLRLSCAASGFTFSSYTMNWVRQAPGKGLEWVSSFIANSDYKFYADSVKGRFTISRDNAKSSLYLQMNSLRAEDTAVYYCARELTSYGSHDAFDIWGQGTMVTVSS VL: QSALTQPASVSGSPGQSITISCTGTSSDVGGYNYVSWYQQHPGKAPKLLIYEVTNRPSGVSDRFSGSKSANVASLTISGLQAEDEADYYCSSYTTTDSVVFGGGTKLTVL |  |  |  |  | binds
EY 9C (antibody, V domains shown) VH: EVQLVESGGGLVKPGGSLRLSCAASEFTFSSYTLNWVRQAPGKGLEWVSSISTSSAYIYYADSVKGRFTISRDNAKKSLSLQMNSLTAEDTAVYYCATWGGAPFDYWGQGTMVTVS VL: QSVLTQPASVSGSPGRSITISCTETSSDVGTYNLVSWYQQHPGKAPKLMIFDDNKRPSGVSNRFSGSKSGNTASLTISGLQAEDEADYYCCSYAGGRTFNVLFGGGTKLTVL |  |  |  |  | binds
EW 1A (antibody, V domains shown) VH: EVQLVESGGGVVQPGSSLRLSCETSGFTFSGHAMHWVRQAPGKGLEWLAQIWFDGSEKYYADSVKGRFTISRDNSKKILYMQMNSLRVQDTAVYYCARDGQHLAPFAMDVWGQGTMVTVSS VL: QSVLTQPASVSGSPGQSITISCTGTSSDVGASNRVSWYQHSPGEAPKLIIYQVTVRPSGVSDRFSGSKSGNTASLTISGLRTEDEAEYYCNSFVSGDSWVFGGGTKVTVL |  |  |  |  | binds
FD 5B (antibody, V domains shown) VH: not shown VL: QSVLTQPPSASGSPGQSVTISCTGTSSDAGGYNYVSWYQQHPGKAPKLMIYEVSKRPSGVPDRFSGSKSGNTASLTVSGLQAEDEADYYCSSYAGSNNPFVFGTGTKVTVL |  |  |  |  | binds
EW 9A (antibody, V domains shown) VH: EVQLLESGGGVVQPGRSLRLSCAASGFTFSSYGMHWVRQAPGKGLEWVAVIWYDGSNKYYADSVKGRFTISRDNSKNTLYLQMNSLRAEDTAVYYCAKDMWALYDILTGYYTPYYYYGMDVWGQGTTVTVSS VL: SYELTQPPSVSVSPGQTARITCSADALPKQYAYWYQQKPGQAPVLVIYKDSERPSGIPERFSGSSSGTTVTLTISGVQAEDEADYYCQSADSSGTYWVFGGGTKLTVL |  |  |  |  | binds
FM 7B (antibody, V domains shown) VH: EVQLVQSGAEVKKPGASVKVSCKASGYTFTSYAMHWVRQAPGQRLEWMGWINTGNGNTKYSQKFQGRVTITRDTSASTAYMELSSLRSEDTAVYYCARDPTYCSSTSCYPFSWFDPWGQGTLVTVSS VL: NFMLTQPPSVSVAPGQTARITCGGNNIGSKSVHWYQQKPGQAPVLVVYDDSDRPSGIPERFSGSNSGNTATLTISRVEAGDEADYYCQVWDSTGDHSWVFGGGTKLTVL | binds | no binding | no binding | no binding | 
FJ 10B (antibody, V domains shown) VH: QVQLVQSGAEVKKPGESLRISCKGSGYSFTSYWISWVRQMPGKGLEWMGRIDPSDSYTNYSPSFQGHVTISADKSISTAYLQWSSLKASDTAMYYCARLDPRYGPDYYGMDVWGQGTTVTVSS VL: AIRMTQSPSSLSASVGDRVTITCRASQSISSYLNWYQQKPGKAPKLLIHAASSLQSGVPSRFSGSGSGTDFTLTMSSLQPEDFATYYCQQSYSTPLTFGGGTKVEIR | binds | no binding | no binding | no binding | 
FI 4A (antibody, V domains shown) VH: EVQLVESGGGLVKPGGSLRLSCAASGFTFSRFSMNWVRQAPGKGLEWVSSISSSGSYIYFADSVKGRFTISRDNAKNSLYLQMNSLRAEDTAIYYCATYLFGDSHTYWGQGTLVTVSS VL: QSVLTQPHSVSESPGKTVTISCTGSSGSIASNYVQWYQQRPGSAPTTVIYEDNQRPSGVPDRFSGSIDSSSNSASLTISGLKTEDEADYYCQSYDSSNLHWVFGGGTKLTVL | no binding | no binding | no binding | no binding | 
